To fix the notation:
B2: hRspo1-AP (human Rspondin-1 fused C-terminally with alkaline phosphatase) (ligand, UniProt Q2MKA7 21-263, looked up)
chain: SRGIKGKRQRRISAEGSQACAKGCELCSEVNGCLKCSPKLFILLERNDIRQVGVCLPSCPPGYFDARNPDMNKCIKCKIEHCEACFSHNFCTKCKEGLYLHKGRCYPACPEGSSAANGTMECSSPAQCEMSEWSPWGPCSKKQQLCGFRRGSEERTRRVLHAPVGDHAACSDTKETRRCTVRRVPCPEGQKRRKGGQGRRENANRNLARKESKEAGAGSRRRKGQQQQQQQGTVGPLTSAGPA
notes: Used as conditioned medium from HEK293T cells; also called hRspol-AP; not shown: alkaline phosphatase (AP) tag

For assay [1], the target named is T1, Wnt5aV5 (V5-tagged Wnt5a) (mouse, UniProt P22725 62-380, limits assumed).
T1 construct: The construct text says 'mWnt3a was subcloned' for pPGKmWnt5aV5, which is probably a slip; Conditioned medium from stably transfected L cells; also called mWnt5aV5; recombinant Wnt5a; not shown: V5 tag
T1 sequence (looked up): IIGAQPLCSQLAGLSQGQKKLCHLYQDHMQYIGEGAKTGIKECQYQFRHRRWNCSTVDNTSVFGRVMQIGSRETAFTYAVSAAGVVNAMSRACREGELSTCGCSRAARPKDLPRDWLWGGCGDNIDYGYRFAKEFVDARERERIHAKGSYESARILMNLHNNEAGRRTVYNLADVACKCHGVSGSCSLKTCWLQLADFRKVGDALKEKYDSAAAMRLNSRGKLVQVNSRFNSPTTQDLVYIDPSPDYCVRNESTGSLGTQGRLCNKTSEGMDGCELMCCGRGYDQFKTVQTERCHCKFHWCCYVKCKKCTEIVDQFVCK
The assay is described as follows: cell surface binding on transfected HEK293T cells. The text has this:
(A-C) Cell surface binding assays. (A, D) Rspo3 binds to syndecan 4 and glypican 3. HEK293T cells were transfected with indicated plasmids and V5-tagged Wnt5a or alkaline phosphatase tagged Rspo3, Dkk1, or TSP proteins were applied for cell surface binding as indicated. (B, C, E, F) Cells were transfected with indicated plasmids and conditioned media.
(§1) Protein conditioned media were produced by transient transfection of HEK293T cells with plasmids encoding fusion proteins: hRspol-AP, hRspo2ΔC-AP, hRspo3ΔC-AP, hRspo3TSP-AP, and dkk1-AP in complete DMEM. XWnt8-hFzd5 fusion was produced in serum-free medium (OPTIMEM I, Gibco) and conditioned medium was concentrated about 100-fold using Centricon Plus-20 filters (Millipore). Wnt5aV5 protein conditioned media was produced using L cells stable transfected with pWnt5aV5. For cell-surface binding experiments, 293T cells were plated on polylysine coated plates, transfected with genes to be tested using FuGENE 6 (Roche) for 48 h, incubated with conditioned media containing fusion proteins for 2 h on ice, washed with Hank's buffer, fixed for 30 min with 0,5mM DSP (Pierce) in Hank's-100mM HEPES, pH 7,2, washed with 0,1 M Tris pH 8,0 and stained with Fast Red (Roche). […] It should be compared with background staining obtained from cells transfected with control plasmid or other genes that are not able bind applied fusion protein.

Assay [2] concerns the target B2. The assay is described as follows: cell surface binding, AP fusion on transfected HEK293T cells.
Excerpt: (§2) (A) Rspo2 and Rspo3 bind to Syndecan-1, Syndecan-2, Syndecan-3 and Syndecan-4. […] HEK293 T-cells were transfected with indicated plasmids and alkaline phosphatase tagged Rspo1, Rspo2, Rspo3 and Rspo4 proteins were applied for cell surface binding as indicated. Cells were transfected with indicated plasmids and conditioned media containing alkaline phosphatise (AP)-fusion proteins of R-spondins were applied for cell surface binding and AP staining as indicated. (B) Cells were transfected with indicated plasmids and incubated with or without NaClO₃. After 24 h Rspo3-AP was applied for binding and proceeded for staining. (C) In vitro binding assay with N-streptag Sdc4ΔTMC purified from conditioned media of control or NaCIO₃ treated cells with purified Rspo3-AP (RU, relative units). (D) Scatchard plot analysis for in vitro binding assays with purified N-streptag Sdc4ΔTMC and Rspo3-AP. (E) Rspo3 binds to Glypican-1, Glypican-2, Glypican-3, Glypican-4, Glypican-5 and Glypican-6.
as §1

Assay [3] concerns the target T2, mouse Syndecan-3 (mouse, UniProt Q64519 45-442, glycosaminoglycan chains (sites not given)).
T2 construct: whole, on cells; Expressed on transfected HEK293T cells; also called Sdc3; mSdc3
Described as above.
Excerpt: as §2, §1

For assay [4], the target named is T3, mouse Syndecan-1 (mouse, UniProt P18828 23-311, glycosaminoglycan chains (sites not given)).
T3 construct: whole, on cells; Expressed on transfected HEK293T cells; also called Sdc1; mSdc1
T3 sequence (looked up): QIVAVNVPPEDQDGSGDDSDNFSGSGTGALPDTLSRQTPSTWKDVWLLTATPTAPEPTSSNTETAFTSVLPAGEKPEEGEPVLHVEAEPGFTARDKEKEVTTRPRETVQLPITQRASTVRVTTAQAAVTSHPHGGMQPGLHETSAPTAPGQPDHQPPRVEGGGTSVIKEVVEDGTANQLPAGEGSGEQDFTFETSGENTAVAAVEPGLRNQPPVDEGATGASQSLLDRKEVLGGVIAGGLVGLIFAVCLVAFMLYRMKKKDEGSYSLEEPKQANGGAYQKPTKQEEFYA
The assay is described as above.
Excerpt: as §2, §1

The target of assay [5] is T4, hRspo3ΔC-AP (human Rspondin-3 aa 1-209 fused to alkaline phosphatase) (human, UniProt Q9BXY4 22-209).
T4 construct: partially purified for the in vitro assay; also called Rspo3-AP; hRspo3-AP; not shown: alkaline phosphatase (AP) tag
T4 sequence: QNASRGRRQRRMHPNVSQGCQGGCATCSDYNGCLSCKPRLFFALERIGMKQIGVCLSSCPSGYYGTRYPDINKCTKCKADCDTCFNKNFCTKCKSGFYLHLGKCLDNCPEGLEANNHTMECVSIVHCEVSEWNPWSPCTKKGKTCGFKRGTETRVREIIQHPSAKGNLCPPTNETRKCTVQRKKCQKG
The assay is described as follows: in vitro binding assay: N-streptag Sdc4ΔTMC on streptavidin-coated plates, serially diluted hRspo3ΔC-AP, bound AP activity by chemiluminescence, Scatchard plot. How it is done: For the in vitro binding assay white, high binding ELISA 96 well plates (Greiner) were coated overnight at 4° C. with 100 μL of 2 μg/mL Streptavidin in bicarbonate buffer (NaHCO₃, 50 mM, pH 9,6). Wells were washed 6 times with […] TBST and incubated with […] of blocking buffer (5% BSA, 1mM MgCl₂ on TBST) on a shaker for 1h at RT. The wells were loaded with […] N-streptag Sdc4ATMC protein in blocking buffer and allowed to bind overnight on a shaker at 4° C. Wells were washed 6 times with […] TBST and incubated with […] of blocking buffer for 1 h. For the binding experiments, […] of serially diluted hRspo3ΔC-AP were placed in wells coated with blocking buffer or N-streptag Sdc4ΔTMC. After 2 h incubation at RT wells were washed 6 times with […] TBST. Bound AP activity was measured using chemiluminescent SEAP Reporter Gene Assay (Roche). For each dilution, background binding value was subtracted from hRspo3ΔC-AP value. Binding data were analyzed by Scatchard plot using Excel.

In US20120263730A1 (DEUTSCHES KREBSFORSCHUNGSZENTRUM, published 2012) one finds binding result and Kd data, which are given here for three molecules.

T2 sequence (Q64519 45-442): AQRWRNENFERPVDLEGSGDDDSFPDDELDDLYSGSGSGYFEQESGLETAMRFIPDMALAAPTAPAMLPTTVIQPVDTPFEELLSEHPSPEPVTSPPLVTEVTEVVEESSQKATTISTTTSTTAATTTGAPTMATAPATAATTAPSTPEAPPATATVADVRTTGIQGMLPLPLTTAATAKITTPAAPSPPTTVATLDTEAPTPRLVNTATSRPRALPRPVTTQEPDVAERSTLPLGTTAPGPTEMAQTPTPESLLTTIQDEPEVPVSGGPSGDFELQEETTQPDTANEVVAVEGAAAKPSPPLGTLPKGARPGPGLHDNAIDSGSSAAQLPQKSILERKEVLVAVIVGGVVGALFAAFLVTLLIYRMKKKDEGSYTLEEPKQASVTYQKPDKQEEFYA

B1: human Syndecan-4 (receptor)
chain: ESIRETEVIDPQDLLEGRYFSGALPDDEDVVGPGQESDDFELSGSGDLDDLEDSMIGPEVVHPLVPLDNHIPERAGSGSQVPTEPKKLEENEVIPKRISPVEESEDVSNKVSMSSTVQGSNIFERTEVLAALIVGGIVGILFAVFLILLLMYRMKKKDEGSYDLGKKPIYKKAPTNEFYA
modifications: glycosaminoglycan chains (GAGs)
notes: Expressed on transfected HEK293T cells; also called Sdc4; hSdc4
As for B1, the binding result in assay [1] and in assay [2] was “no binding” throughout.
In the case of B2, the binding result in assay [3] and in assay [4] was “no binding” each time.

B3: N-streptag Sdc4ΔTMC (human Syndecan-4 extracellular domain, last 52 amino acids deleted, N-terminal Streptag-HA-CBP) (receptor)
chain: ESIRETEVIDPQDLLEGRYFSGALPDDEDVVGPGQESDDFELSGSGDLDDLEDSMIGPEVVHPLVPLDNHIPERAGSGSQVPTEPKKLEENEVIPKRISPVEESEDVSNKVSMSSTVQGSNIFERTE
modifications: sulfated glycosaminoglycan chains (GAGs)
notes: The Sdc4 signal peptide was replaced by that of mKremen2; Partially purified from conditioned medium of HEK293T cells and captured on streptavidin-coated plates; also called N-streptag-hSdc4ΔTMC; purified extracellular domain of Sdc4; not shown: Streptag-HA-CBP fragment of the pGLUE expression vector
A word on the Kd: it is the constant that tells how readily two partners part at equilibrium. With B3, the Kd in assay [5] turned out to be 880 pM.
